Results: paper PMC2888511

Key:
Beclin 1 [1] = target: Beclin 1 (UniProt Q14457); experiment: anti-flag IP of flag-Beclin 1, HA-Vps34 blot; details: reference: wild type with Cdk5/p25; sites T159
Beclin 1 [2] = target: Beclin 1 (UniProt Q14457); experiment: anti-flag IP of flag-Vps34, GFP-Beclin 1 blot; details: reference: wild type with Cdk5/p25; sites T159

In the case of “Vps34 (from UniProt Q8NEB9) T159A with Cdk5/p25”, the “binding against the reference” value (Beclin 1 [1]) is reported as “stronger” and the “binding against the reference” value (Beclin 1 [2]) is reported as “stronger”.
